Test results published in publication PMC4554539 (2016).
Read-outs that look alike come from different tables or passages of the source.

Assays:
[1] = molecular target: T1, Na-Cl co-transporter (NCC) (Mus musculus, UniProt P59158); experiment: FITC-IL18 binding to NCC-transfected COS-7 cell membranes, Scatchard analysis
T1 chain: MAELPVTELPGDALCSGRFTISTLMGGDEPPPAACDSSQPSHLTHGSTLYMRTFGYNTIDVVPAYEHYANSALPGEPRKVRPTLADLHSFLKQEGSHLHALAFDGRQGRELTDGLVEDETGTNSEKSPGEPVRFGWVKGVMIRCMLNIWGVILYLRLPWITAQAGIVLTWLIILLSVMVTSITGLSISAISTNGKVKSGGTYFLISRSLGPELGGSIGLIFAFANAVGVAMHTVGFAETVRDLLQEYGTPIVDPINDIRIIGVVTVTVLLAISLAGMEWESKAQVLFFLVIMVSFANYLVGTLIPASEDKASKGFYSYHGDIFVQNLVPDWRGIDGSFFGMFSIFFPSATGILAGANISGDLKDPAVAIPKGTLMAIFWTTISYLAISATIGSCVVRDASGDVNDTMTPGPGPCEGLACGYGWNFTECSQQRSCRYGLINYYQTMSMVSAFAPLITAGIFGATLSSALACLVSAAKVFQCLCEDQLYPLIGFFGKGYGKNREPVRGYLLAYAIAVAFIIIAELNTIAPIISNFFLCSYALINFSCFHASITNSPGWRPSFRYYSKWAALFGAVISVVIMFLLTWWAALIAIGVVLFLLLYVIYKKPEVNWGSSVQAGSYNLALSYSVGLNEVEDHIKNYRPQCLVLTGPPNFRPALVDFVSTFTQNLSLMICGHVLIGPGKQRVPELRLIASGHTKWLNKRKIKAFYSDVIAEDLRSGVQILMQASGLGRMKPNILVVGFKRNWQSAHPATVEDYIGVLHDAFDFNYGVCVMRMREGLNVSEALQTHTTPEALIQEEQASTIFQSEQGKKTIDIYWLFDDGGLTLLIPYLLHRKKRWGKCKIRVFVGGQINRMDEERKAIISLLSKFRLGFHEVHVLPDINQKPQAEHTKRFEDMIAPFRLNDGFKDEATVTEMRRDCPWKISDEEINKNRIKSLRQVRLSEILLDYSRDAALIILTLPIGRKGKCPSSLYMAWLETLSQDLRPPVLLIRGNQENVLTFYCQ

[2] = molecular target: T1, Na-Cl co-transporter (NCC)

B1: IL-18 (protein)
chain: NFGRLHCTTAVIRNINDQVLFVDKRQPVFEDMTDIDQSASEPQTRLIIYMYKDSEVRGLAVTLSVKDSKMSTLSCKNKIISFEEMDPPENIDDIQSDLIFFQKRVPGHNKMEFESSLYEGHFLACQKEDDAFKLILKKKDENGDKSVMFTLTNLHQS
modifications: FITC-conjugated IL18
With B1 the Kd [1] was 17.3 nM and the Kd [2] was 21.4 nM.
